Test results published in patent publication US20040167319A1 (Genmab, published 2004).
Where a chain is given by its changes, count along the chain named. *1 amine or outer side, *2 acyl side, *3 side chain or, on linkers, in order; H or OH if unused. Bridges are numbered along the chain shown (N, C = ends). Where no end group is shown, it is not given here. mXylylene = c1cc(C[*:1])cc(C[*:2])c1; minicard = not defined here

B1: 11B8 (antibody, IgG3, V domains shown)
VH: EVQLVQSGGGLVHPGGSLRLSCTGSGFTFSYHAMHWVRQAPGKGLEWVSIIGTGGVTYYADSVKGRFTISRDNVKNSLYLQMNSLRAEDMAVYYCARDYYGAGSFYDGLYGMDVWGQGTTVTVSS
VL: EIVLTQSPATLSLSPGERATLSCRASQSVSSYLAWYQQKPGQAPRLLIYDASNRATGIPARFSGSGSGTDFTLTISSLEPEDFAVYYCQQRSDWPLTFGGGTKVEIK
notes: Human monoclonal IgG3,κ from hybridoma
B2: 7D8 (antibody, IgG1, V domains shown)
VH: EVQLVESGGGLVQPDRSLRLSCAASGFTFHDYAMHWVRQAPGKGLEWVSTISWNSGTIGYADSVKGRFTISRDNAKNSLYLQMNSLRAEDTALYYCAKDIQYGNYYYGMDVWGQGTTVTVSS
VL: B1 VL with D93N, L96I, G100Q, K103R, V104L
notes: Human monoclonal IgG1,κ from hybridoma
B3: 2F2 (antibody, V domains shown)
VH: B2 VH with D15G, H30N, T57S, N77K
VL: B1 VL with D93N, L96I, G100Q, K103R, V104L
modifications: FITC- or 125I-labelled in some assays; F(ab')2 fragments in some; the letters do not carry this
notes: Human monoclonal IgG1,κ from hybridoma; also called 4C9; HuMab 2F2 (hybridoma-derived)

Biological target: T1, KMECLNFIRAHCPYI (linker 4-12 via 1,3‑bis(bromomethyl)‑benzene (inferred); reading uncertain)
T1 construct: 15-mer looped Pepscan peptide derived from human CD20, Cys put in at two positions
T1 peptide: Ac-KMECLNFIRAHCPYI-minicard
Assay: Pepscan ELISA, 10 µg/ml
Text: (§1) In some cases chemical linkage of the legs of a 15-mer peptide helps to identify amino acid sequences of a potentially discontinuous epitope. […] The 9- and 15-mers were synthesized as loops and screened using credit-card format mini-PEPSCAN cards (455 peptide format/card). In all looped peptides amino acids at varied positions were replaced by a cysteine (e.g., acetyl-XCXXXXXXXXCX-minicard). The peptides were synthesized using standard Fmoc-chemistry and deprotected using TFA with scavengers. Subsequently, the deprotected peptides were reacted on the microarray with an 0.5 mM solution of 1,3-bis(bromomethyl)-benzene in ammonium bicarbonate (20 mM, pH 7.9), supplemented with acetonitrile (1:1 (v/v)). The microarrays were gently shaken in the solution for 30-60 min, while completely covered in the solution. Finally, the microarrays were washed extensively with excess of Millipore H₂O and sonicated in disrupt-buffer containing 1% sodium dodecylsulfate, 0.1% β-mercaptoethanol, in PBS (pH 7.2) at 70° C. for 30 min, followed by sonication in millipore H₂O for another 45 min. Subsequently, the microwells were ready for screening in an ELISA-assay.
(§2) […] After washing, the peptides were incubated with anti-human antibody peroxidase (dilution 1:1000, 1 hour, 25° C.), and after washing the peroxidase substrate, 2,2′-azino-di-3-ethylbenzthiazolin sulfonate and 2 μl/ml 3% H₂O₂ were added. After one hour, the color development was measured. The color development of the ELISA was quantified with a CCD-camera and an image processing system.

In order of falling “OD (absorbance)” value:
1. B1  763 OD
2. B2  134 OD
3. B3  48 OD

Biological target: T2, LKMECLNFIRCHTPY (linker 5-11 via 1,3‑bis(bromomethyl)‑benzene (inferred); reading uncertain)
T2 construct: 15-mer looped Pepscan peptide derived from human CD20, Cys put in at two positions
T2 peptide: Ac-LKMECLNFIRCHTPY-minicard
Assay: Pepscan ELISA, 10 µg/ml
Text: as §1, §2

In order of rising “OD (absorbance)” value:
1. B3  49 OD
2. B2  160 OD
3. B1  165 OD

Biological target: T3, KMESCNFIRACTPYI (linker 5-11 via 1,3‑bis(bromomethyl)‑benzene (inferred); reading uncertain)
T3 construct: 15-mer looped Pepscan peptide derived from human CD20, Cys put in at two positions
T3 peptide: Ac-KMESCNFIRACTPYI-minicard
Assay: Pepscan ELISA, 10 µg/ml
Text: as §1, §2

In order of falling “OD (absorbance)” value:
1. B1  625 OD
2. B2  142 OD
3. B3  39 OD

Biological target: T4, MESLCFIRAHCPYIN (linker 5-11 via 1,3‑bis(bromomethyl)‑benzene (inferred); reading uncertain)
T4 construct: 15-mer looped Pepscan peptide derived from human CD20, Cys put in at two positions
T4 peptide: Ac-MESLCFIRAHCPYIN-minicard
Assay: Pepscan ELISA, 10 µg/ml
Text: as §1, §2

In order of falling “OD (absorbance)” value:
1. B1  179 OD
2. B2  127 OD
3. B3  41 OD

Biological target: T5, CFIRAHTPC (linker 1-9 via 1,3‑bis(bromomethyl)‑benzene (inferred); not fully specified (C-terminus); also: covalently linked to minicard)
T5 construct: 9-mer looped Pepscan peptide derived from human CD20
T5 peptide: CFIRAHTPC
Assay: Pepscan ELISA, 10 µg/ml
Text: as §1, §2

In order of rising “OD (absorbance)” value:
1. B3  91 OD
2. B2  181 OD
3. B1  188 OD

Biological target: T6, CIRAHTPYC (linker 1-9 via 1,3‑bis(bromomethyl)‑benzene (inferred); not fully specified (C-terminus); also: covalently linked to minicard)
T6 construct: 9-mer looped Pepscan peptide derived from human CD20
T6 peptide: CIRAHTPYC
Assay: Pepscan ELISA, 10 µg/ml
Text: as §1, §2

In order of rising “OD (absorbance)” value:
1. B3  57 OD
2. B1  151 OD
3. B2  186 OD

Biological target: T7, CAHTPYINC (linker 1-9 via 1,3‑bis(bromomethyl)‑benzene (inferred); not fully specified (C-terminus); also: covalently linked to minicard)
T7 construct: 9-mer looped Pepscan peptide derived from human CD20
T7 peptide: CAHTPYINC
Assay: Pepscan ELISA, 10 µg/ml
Text: as §1, §2

In order of falling “OD (absorbance)” value:
1. B1  179 OD
2. B2  174 OD
3. B3  42 OD

Biological target: T8, IPAGIYA (also: covalently linked to polyethylene card)
T8 construct: 7-mer Pepscan peptide derived from human CD20
T8 peptide: IPAGIYA
Assay: Pepscan ELISA, 10 µg/ml
Text: as §1, §2

In order of rising “OD (absorbance)” value:
1. B3  48 OD
2. B2  164 OD
3. B1  217 OD

Biological target: T9, PAGIYAP (also: covalently linked to polyethylene card)
T9 construct: 7-mer Pepscan peptide derived from human CD20
T9 peptide: PAGIYAP
Assay: Pepscan ELISA, 10 µg/ml
Text: as §1, §2

In order of rising “OD (absorbance)” value:
1. B3  43 OD
2. B2  170 OD
3. B1  449 OD

Biological target: T10, AGIYAPI (also: covalently linked to polyethylene card)
T10 construct: 7-mer Pepscan peptide derived from human CD20
T10 peptide: AGIYAPI
Assay: Pepscan ELISA, 10 µg/ml
Text: as §1, §2

In order of rising “OD (absorbance)” value:
1. B3  44 OD
2. B2  188 OD
3. B1  251 OD

Biological target: T11, GIYAPIC (also: covalently linked to polyethylene card)
T11 construct: 7-mer Pepscan peptide derived from human CD20
T11 peptide: GIYAPIC
Assay: Pepscan ELISA, 10 µg/ml
Text: as §1, §2

In order of rising OD (absorbance):
1. B3  34 OD
2. B1  99 OD
3. B2  152 OD

Biological target: T12, IYAPICV (also: covalently linked to polyethylene card)
T12 construct: 7-mer Pepscan peptide derived from human CD20
T12 peptide: IYAPICV
Assay: Pepscan ELISA, 10 µg/ml
Text: as §1, §2

In order of rising “OD (absorbance)” value:
1. B3  58 OD
2. B1  137 OD
3. B2  174 OD

Biological target: T13, GIYAPIA (also: covalently linked to polyethylene card)
T13 construct: 7-mer Pepscan peptide derived from human CD20 (A in place of the C of GIYAPIC)
T13 peptide: GIYAPIA
Assay: Pepscan ELISA, 10 µg/ml
Text: as §1, §2

In order of falling “OD (absorbance)” value:
1. B2  177 OD
2. B1  172 OD
3. B3  62 OD

Biological target: T14, IYAPIAV (also: covalently linked to polyethylene card)
T14 construct: 7-mer Pepscan peptide derived from human CD20 (A in place of the C of IYAPICV)
T14 peptide: IYAPIAV
Assay: Pepscan ELISA, 10 µg/ml
Text: as §1, §2

In order of rising “OD (absorbance)” value:
1. B3  62 OD
2. B1  161 OD
3. B2  181 OD

Biological target: T15, PCINIYNAEPANPCE (linker 2-14 via 1,3‑bis(bromomethyl)‑benzene (inferred); reading uncertain)
T15 construct: 15-mer looped Pepscan peptide derived from human CD20, Cys put in at two positions
T15 peptide: Ac-PCINIYNAEPANPCE-minicard
Assay: Pepscan ELISA, 10 µg/ml
Text: as §1, §2

In order of rising “OD (absorbance)” value:
1. B3  65 OD
2. B1  118 OD
3. B2  163 OD

Biological target: T16, YCNIYNAEPANPSCK (linker 2-14 via mXylylene; reading uncertain)
T16 construct: 15-mer looped Pepscan peptide derived from human CD20, Cys put in at two positions
T16 peptide: Ac-YCNIYNAEPANPSCK-minicard
Assay: Pepscan ELISA, 10 µg/ml
Text: as §1, §2

In order of falling “OD (absorbance)” value:
1. B1  287 OD
2. B2  181 OD
3. B3  86 OD

Biological target: T17, ICIYNAEPANPSECN (linker 2-14 via 1,3‑bis(bromomethyl)‑benzene (inferred); reading uncertain)
T17 construct: 15-mer looped Pepscan peptide derived from human CD20, Cys put in at two positions
T17 peptide: Ac-ICIYNAEPANPSECN-minicard
Assay: Pepscan ELISA, 10 µg/ml
Text: as §1, §2

In order of falling “OD (absorbance)” value:
1. B2  192 OD
2. B1  138 OD
3. B3  78 OD

Biological target: T18, NCYNAEPANPSEKCS (linker 2-14 via 1,3‑bis(bromomethyl)‑benzene (inferred); reading uncertain)
T18 construct: 15-mer looped Pepscan peptide derived from human CD20, Cys put in at two positions
T18 peptide: Ac-NCYNAEPANPSEKCS-minicard
Assay: Pepscan ELISA, 10 µg/ml
Text: as §1, §2

In order of rising “OD (absorbance)” value:
1. B3  49 OD
2. B1  93 OD
3. B2  121 OD

Biological target: T19, ICNAEPANPSEKNCP (linker 2-14 via 1,3‑bis(bromomethyl)‑benzene (inferred); reading uncertain)
T19 construct: 15-mer looped Pepscan peptide derived from human CD20, Cys put in at two positions
T19 peptide: Ac-ICNAEPANPSEKNCP-minicard
Assay: Pepscan ELISA, 10 µg/ml
Text: as §1, §2

In order of rising “OD (absorbance)” value:
1. B3  43 OD
2. B1  115 OD
3. B2  165 OD

Biological target: T20, YCAEPANPSEKNSCS (linker 2-14 via 1,3‑bis(bromomethyl)‑benzene (inferred); reading uncertain)
T20 construct: 15-mer looped Pepscan peptide derived from human CD20, Cys put in at two positions
T20 peptide: Ac-YCAEPANPSEKNSCS-minicard
Assay: Pepscan ELISA, 10 µg/ml
Text: as §1, §2

In order of rising “OD (absorbance)” value:
1. B3  65 OD
2. B1  106 OD
3. B2  188 OD

Biological target: T21, NCEPANPSEKNSPCT (linker 2-14 via 1,3‑bis(bromomethyl)‑benzene (inferred); reading uncertain)
T21 construct: 15-mer looped Pepscan peptide derived from human CD20, Cys put in at two positions
T21 peptide: Ac-NCEPANPSEKNSPCT-minicard
Assay: Pepscan ELISA, 10 µg/ml
Text: as §1, §2

In order of rising “OD (absorbance)” value:
1. B3  61 OD
2. B1  159 OD
3. B2  183 OD

Biological target: T22, ACPANPSEKNSPSCQ (linker 2-14 via 1,3‑bis(bromomethyl)‑benzene (inferred); reading uncertain)
T22 construct: 15-mer looped Pepscan peptide derived from human CD20, Cys put in at two positions
T22 peptide: Ac-ACPANPSEKNSPSCQ-minicard
Assay: Pepscan ELISA, 10 µg/ml
Text: as §1, §2

In order of rising “OD (absorbance)” value:
1. B3  77 OD
2. B1  146 OD
3. B2  148 OD

Biological target: T23, ECANPSEKNSPSTCY (linker 2-14 via 1,3‑bis(bromomethyl)‑benzene (inferred); reading uncertain)
T23 construct: 15-mer looped Pepscan peptide derived from human CD20, Cys put in at two positions
T23 peptide: Ac-ECANPSEKNSPSTCY-minicard
Assay: Pepscan ELISA, 10 µg/ml
Text: as §1, §2

In order of rising “OD (absorbance)” value:
1. B3  68 OD
2. B1  134 OD
3. B2  179 OD
